Where two headings read alike, the source gives them in different places. Positions of bridges follow the written chain, without caps; N, C: chain ends. No end group written: not given here.
Columns and labels:
[1] = biological target: T1, EGF receptors of the Capan-1 cell line (Homo sapiens, UniProt P00533); assay: Competitive binding with 125I-EGF to EGF receptors
T1 construct: endogenous in cells; host or cells: Capan-1 (human pancreatic adenocarcinoma)
Protocol: The detailed procedure that was employed is as follows:
1. 1.25×10^5 cells were seed per well in plates of 24 wells which were kept in culture for 48 h in DMEM FBS 10%. Triplicates were put for each concentration of competitor to be tested.
2. 24 h before the test, the full medium of the wells was replaced by 2 mL, per well, of DMEM without fetal serum.
3. The next day, the cells were washed, three times, with cold binding medium.
4. The cells were incubated with 70 μL of binding medium to which the concentrations of the competitor to be tested had been added. […] Afterwards, 40,000 cpm (350 pM) of ^125I-EFG were added. The incubation was done at 4° C. for 5 h.
5. The cells were washed quickly three times with 500 μL of the cold washing solution.
6. They were solubilized through incubation for 30 min at room temperature with the permeabilization solution.
7. The radioactivity in the suspension was determined with a gamma counter. To determine the unspecific binding, the value of unspecific binding was deducted from the total bounded radioactivity.
From the test, the bounded radioactivity for each one of the tested concentrations of unlabeled competitor was determined. […] To determine the percentage, the following formula was applied: [formula]
where B is the amount of specific binding in presence of a specific competitor concentration.
With the aim of determining the kind of binding which is taking place, a pseudo-Hill or Logit-log representation (Pratt, W. B. and Taylor, P. “Principles of Drug Action. The Basis of Pharmacology”. Ed. Churchill Livingstone, N.Y., 1990) was carried out. The data of specific binding percentage are used to calculate the log(P/[100-P]), which is represented versus the logarithm of the competitor concentration.
The resulting slope of the straight line is called pseudo-Hill coefficient.
The fitting has been made using the programme Graphpad Inplot4. A non-linear fitting for competition for two binding sites is made. The logarithm of the competitor concentration has been represented versus the values of Logit-log (FIG. 25).
From the previous fitting, the value of IC50, that is to say, the competitor concentration which inhibits 50% of the specific binding for the two types of binding was determined. Also, the percentage of the two types of binding sites was determined.

[2] = test system: human pancreatic adenocarcinoma cell line Capan-1; assay type: cell-based; conditions: SFM, 72 h
Protocol: Other kinds of tests were also carried out, the cells growing in serum-free medium as well; these were studies at short periods of time, 72 h, and of competitiveness with a growth factor plus wtPCI, PCIdelYVG or tail. […] The protocol employed was as follows:
1. In a culture plate of 96 wells, in 42 of which 5,000 cells per well were seed. The cells were placed in full medium (DMEM+10%FBS).
2. After 72 h, once the adhesion of the cells to the surface of the well had taken place, as well as their division, the medium was removed from the wells and to eliminate the remainder of the serum, 200 μL of PBS were added to each well.
3. The PBS was removed and 200 μL of DMEM-FBS were added.
4. After 24 h, the medium was removed and the following treatments were applied:
In 6 wells (control): 200 μL of serum-free medium (SFM) were added.
200 μL of SFM plus the indicated concentration of one of the growth factors and wtPCI were added in 6 wells at a final concentration of 50 μg/mL.
In 6 wells, 200 μL of SFM plus the indicated concentration of one of the growth factors and PCIdelYVG were added at a final concentration of 46 μg/mL. […]
4. Cells were kept in an incubator at 37° C., 87% of relative humidity and 10% of CO2.
5. After 72 h, the cellular growth per well was evaluated using the method detailed in the protocol of Section 4.B.2.a.

β2-microglobuline = assay: Gene expression analysis by Northern transfer, β2-microglobuline probe; assay type: cell-based, human; conditions: 12 days, Capan-1 (control 955)
Protocol: To verify whether the PCI plays any role in signal transduction, studies of gene expression were carried out by Northern transfer. The probes were: β2-microglobulin, p53 and trypsin. The β2-microglobulin is a constitutive gene that is used as a sample loading control in the gel. p53 is a transcription factor which, among other functions, controls the state of the genomic DNA and the cell cycle (Bates, S. & Vousden, K. H. (1996) Curr. Opin. Genet. Develop., 6: 12-19). If the DNA is damaged, p53 induces its repair and, if it is excessively damaged, it provokes programmed cellular death (apoptosis). Trypsin is a marker of pancreatic cells of the acinar type. The trypsin is not expressed by all the tumoral cells and it is believed that it is expressed by the cells with metastatic power and/or invasive power (Fernández, E. et al., (1994) Cancer, 73: 2285-2295). The probes employed are described as follows:
In the first place, 3×10^6 cells of the human pancreatic adenocarcinoma cell line Capan-1 were placed in each one of the 12 flasks of 150 cm^2. […] They were maintained in culture for 12 days period, changing their medium every 4 days, adding fresh PCI. […]
The quantifying of the hybridized filters with the respective probes was done using a Betascope 601 blot Analyzer counter (Betagen, USA). […]

[3] = [PCI] nM 1, 350 pM 125I-EGF, 5 h, 4° C.

With “PCI: potato carboxypeptidase inhibitor, isoform IIa, obtained by recombinant DNA techniques in E. coli (SEQ ID NO.2) (EQHADPICNKPCKTHDDCSGAWFCQACWNSARTCGPYVG; disulfide 12-27, 18-34, 8-24)” the “% Receptors” value ([1]; High affinity binding site) was 99.7%, the “Log (P/[100-P])” value ([1]; Log [PCI] M −4.33) was −0.272 and the “Log (P/[100-P])” value ([1]; Log [PCI] M −4.93) was −0.2246. The “Log (P/[100-P])” value ([1]; Log [PCI] M −5.83) was −0.1873, the “Log (P/[100-P])” value ([1]; Log [PCI] M −6.63) was 0,605 and the “Log (P/[100-P])” value ([1]; Log [PCI] M −7.63) was 0.713. For the same substance, the “Log (P/[100-P])” value ([1]; Log [PCI] M −8.63) was 1.205, the “Log (P/[100-P])” value ([1]; Log [PCI] M −9) was 1.99 and the “% Receptors” value ([1]; Low affinity binding site) was 0.3%. The “Percentage of specific binding” value [1, 3] was 99%, the “Specific binding (cpm)” value [1, 3] was 1597 cpm and the “Percentage of specific binding” value ([1]; [PCI] nM 2.32) was 94.14%. The “Specific binding (cpm)” value ([1]; [PCI] nM 2.32) was 1503.5 cpm, the “Percentage of specific binding” value ([1]; [PCI] nM 23.2) was 83.78% and the “Specific binding (cpm)” value ([1]; [PCI] nM 23.2) was 1307 cpm. The “Percentage of specific binding” value ([1]; [PCI] nM 232.8) was 80.13%, the “Specific binding (cpm)” value ([1]; [PCI] nM 232.8) was 1250 cpm and the “Percentage of specific binding” value ([1]; [PCI] nM 2328.2) was 39.38%. The “Specific binding (cpm)” value ([1]; [PCI] nM 2328.2) was 621.5 cpm, the “Percentage of specific binding” value ([1]; [PCI] nM 11641) was 37.35% and the “Specific binding (cpm)” value ([1]; [PCI] nM 11641) was 582.6 cpm. For the same substance, the “Percentage of specific binding” value ([1]; [PCI] nM 46566) was 34.83%, the “Specific binding (cpm)” value ([1]; [PCI] nM 46566) was 543.33 cpm and the “binding capacity to the receptor of high affinity, times inferior to that of the EGF” value ([1]; high affinity receptor) was 6 times. For the same substance, the “Growth (Percentage in relation to the average of the controls)” value ([2]; EGF 10 ng/mL + 50 mg/mL wtPCI) was 30.63%, the “Growth (Percentage in relation to the average of the controls)” value ([2]; Insulin 5 mg/mL + 50 mg/mL wtPCI) was 44.10% and the “beta counts, β2-microglobuline probe” value (β2-microglobuline; 1 mg/mL PCI) was 2183. The “beta counts, β2-microglobuline probe” value (β2-microglobuline; 10 mg/mL PCI) was 6287.

From patent publication US6379959B1, “Metalocarboxypeptidase inhibitors and derived molecules used as antitumor agents” (Universitat Autonoma de Barcelona, priority 1996, dated 2002)
